Molecular target: 重组人NogoA蛋白 (recombinant human NogoA protein) (human) (UniProt Q9NQC3)
Experiment: BLI (Gator label-free analyser), antibody captured on Protein A probe, NogoA at 10, 5, 2.5 and 0 ug/mL

Sequence of UniProt Q9NQC3 (Q9NQC3 1055-1120 limits assumed): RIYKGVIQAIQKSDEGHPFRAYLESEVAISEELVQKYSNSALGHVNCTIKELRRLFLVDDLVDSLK

Kd: 8.2 pM
B1: NogoAD1-1 (antibody, part only; not given: Light chain variable domain, V domains shown, part only)
VH: EVLLVESQQTPVKPGGSLKASCAGSQSVFLTAAYSWVRPTPEKLLEWVATISYGSPNTYYPDSVKGRYNEKFKGKATLTVETSSSTAYMQLSSLTSEDTAVYFCARRSYGEDSWFSYWGQGTLVTVSS
